Changes are numbered by the printed parent chain. Names may count otherwise.
B1: humanized 292.12.3.1 construct clone 8 (12VH5-gly + fback) (antibody, human IgG4, V domains shown)
VH: EVQLVQSGAEVKKPGESLKISCKASGYTLTRYWMQWVRQMPGKGLEWMGAIYPGDGDTRYSPSFQGQVTLTADKSISTAYLQWSSLKASDTAMYYCAFPDGYYAAPYGMDYWGQGTTVTVSS
VL: DIQMTQSPSSLSASVGDRVTITCRASGNIHNYLAWYQQKPGKVPKLLIYNAKTLADGVPSRFSGSRSETQYSLTISSLQPEDVATYYCQHFWSTPWTFGQGTKVEIKR
notes: also called 08
B2: humanized 292.12.3.1 construct clone 11 (12VH5-gly + HC(fback)) (antibody, human IgG4, V domains shown)
VH: B1 VH
VL: B1 VL with R66G, E68G, Q70D, Y71F, S72T
B3: humanized 292.12.3.1 construct clone 21 (12VH5-gly + HC(G24A, S28T, F29L, R94F) + LC(fback)) (antibody, human IgG4, V domains shown)
VH: B1 VH with L70I, T71S
VL: B1 VL
B4: humanized 292.12.3.1 construct clone 22 (12VH5-gly + HC(fback) + LC(G66R, G68E, D70Q, T72S)) (antibody, human IgG4, V domains shown)
VH: B1 VH
VL: B1 VL with Y71F
B5: humanized 292.12.3.1 construct clone 23 (12VH5-gly + HC(fback) + LC(D70Q, F71Y, T72S)) (antibody, human IgG4, V domains shown)
VH: B1 VH
VL: B1 VL with R66G, E68G
B6: humanized 292.12.3.1 construct clone 26 (12VH1-gly + HC(fback) + LC(F71Y)) (antibody, human IgG4, V domains shown)
VH: QVQLVQSGAEVKKPGASVKVSCKASGYTLTRYWMQWVRQAPGQGLEWMGAIYPGDGDTRYSQKFQGRVTLTADKSISTAYMELSSLRSEDTAVYYCAFPDGYYAAPYGMDYWGQGTLVTVSS
VL: B1 VL with R66G, E68G, Q70D, S72T
B7: humanized 292.12.3.1 construct clone 7 (12VH1-gly + fback) (antibody, human IgG4, V domains shown)
VH: B6 VH
VL: B1 VL
notes: also called 07
B8: humanized 292.12.3.1 construct clone 9 (12VH1-gly + HC(fback)) (antibody, human IgG4, V domains shown)
VH: B6 VH
VL: B1 VL with R66G, E68G, Q70D, Y71F, S72T
notes: also called 09
B9: humanized 292.12.3.1 construct clone 10 (12VH1-gly + LC(fback)) (antibody, human IgG4, V domains shown)
VH: B6 VH with L29F, L70M, A72R, K74T, A79V, F98R
VL: B1 VL
B10: humanized 292.12.3.1 construct clone 13 (12VH1-gly + HC(F29L, M69L, R71A, T73K, V78A) + LC(fback)) (antibody, human IgG4, V domains shown)
VH: B6 VH with F98R
VL: B1 VL
B11: humanized 292.12.3.1 construct clone 14 (12VH1-gly + HC(M69L, R71A, T73K, V78A, R94F) + LC(fback)) (antibody, human IgG4, V domains shown)
VH: B6 VH with L29F
VL: B1 VL
B12: humanized 292.12.3.1 construct clone 16 (12VH1-gly + HC(fback) + LC(G66R, G68E, D70Q, T72S)) (antibody, human IgG4, V domains shown)
VH: B6 VH
VL: B1 VL with Y71F
B13: humanized 292.12.3.1 construct clone 17 (12VH1-gly + HC(fback) + LC(D70Q, F71Y, T72S)) (antibody, human IgG4, V domains shown)
VH: B6 VH
VL: B1 VL with R66G, E68G
B14: humanized 292.12.3.1 construct clone 18 (12VH1-gly + HC(fback) + LC(G66R, G68E, F71Y)) (antibody, human IgG4, V domains shown)
VH: B6 VH
VL: B1 VL with Q70D, S72T
B15: humanized 292.12.3.1 construct clone 25 (12VH1-gly + HC(F29L, R94F) + LC(F71Y)) (antibody, human IgG4, V domains shown)
VH: B6 VH with L70M, A72R, K74T, A79V
VL: B1 VL with R66G, E68G, Q70D, S72T
B16: humanized 292.12.3.1 construct clone 24 (12VH5-gly + HC(fback) + LC(G66R, G68E, F71Y)) (antibody, human IgG4, V domains shown)
VH: B1 VH
VL: B1 VL with Q70D, S72T

Columns and labels:
[1] = biological target: recombinant human IL-31 (C108S), produced in E. coli by ZymoGenetics, MW 18 kDa (human), Q6EBC2; experiment: cell-based or functional assay
[2] = biological target: T1, recombinant human IL-31 (as used in the NHK STAT3 phosphorylation assay of Example 5) (human, UniProt Q6EBC2 24-164, limits assumed); experiment: cell-based or functional assay
T1 sequence: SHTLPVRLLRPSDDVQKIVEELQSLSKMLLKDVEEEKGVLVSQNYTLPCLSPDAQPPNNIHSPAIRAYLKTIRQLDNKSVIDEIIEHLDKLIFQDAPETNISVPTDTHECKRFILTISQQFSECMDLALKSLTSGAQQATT

[3] = biological target: T2, recombinant human IL-31 (hIL-31, BHK produced, A1277F, zcytor17lig CEE) (human, UniProt Q6EBC2 24-164); experiment: SPR (Biacore), mAb amine-coupled to CM5 chip, hIL-31 injected
T2 construct: also called recombinant hIL-31
T2 sequence: T1 sequence
Procedure: (§1) The purified monoclonal antibodies were immobilized in individual flow cells on a CM5 type sensor chip. Immobilizations were performed using a standard amine coupling procedure, aiming for an immobilization level of 500 Resonance Units (RU). The antibodies were diluted to 1-5 ug/ml in 10 mM NaAc pH 4.5.
(§2) HPS-EP pH 7.4 (10 mM HEPES, 150 mM NaCl, 3 mM EDTA and 0.005% Polysorbat P20) was used as running buffer, and diluents for the recombinant hIL-31 (hIL-31, BHK produced, A1277F, zcytor17lig CEE). The hIL-31 was tested in a 3-fold dilution series from 333.3 nM to 1.4 nM. Association (injection) was 4 min., followed by a 20 min. dissociation (wash) period. Flow rate was 50 ul/min. Experiments were performed at 25OC. Regeneration of the surface was accomplished by injection of 30 sec. pulse of 10 mM Glycin-HCl pH 1.8 or 1M formic acid, at a 30 ul/min flow rate. Detection in all flow cells simultaneously. Flow cell #1 contained no immobilized antibody, and was used for subtraction of background and bulk.
(§3) The kinetic parameters were calculated by global fitting of the data using a 1:1 langmuir binding model. Data was inspected for mass-transport limitations prior to calculation of the kinetic parameters. In some experiments the Rmax was fitted locally, and the RI constant at 0.

[4] = biological target: T2, recombinant human IL-31 (hIL-31, BHK …); experiment: SPR (Biacore), against parent 292.12.3.1
Procedure: as §1, §2, §3

| Binder | Average Fold loss in potency relative to 292.12.3.1, BAF-3(hIL-31R) proliferation assay [1] [fold] | Average Potency (IC50), inhibition of hIL-31-induced proliferation of BAF-3(hIL-31R) cells [1] [nM] | IC50, IL-31-induced STAT3 phosphorylation in NHK, Exp 4 [2] [nM] | IC50, IL-31-induced STAT3 phosphorylation in NHK, Exp 10 [2] [nM] | Kd [3] [nM] | koff [3] [s⁻¹] | kon [3] [M⁻¹ s⁻¹] | Relative potency loss (kd) [4] | Relative potency loss (KD) [4] | IC50, IL-31-induced STAT3 phosphorylation in NHK, Exp 8 [2] [nM] | IC50, IL-31-induced STAT3 phosphorylation in NHK, Exp 9 [2] [nM] | IC50, IL-31-induced STAT3 phosphorylation in NHK, Exp 6 [2] [nM] | IC50, IL-31-induced STAT3 phosphorylation in NHK, Exp 7 [2] [nM] |
| --- | --- | --- | --- | --- | --- | --- | --- | --- | --- | --- | --- | --- | --- |
| B1 | 2.5 | 4.1 | 6.74 | 3.44 | 1.9 | 5.4e-05 | 28000 | – | – | – | – | – | – |
| B2 | 11.6 | 22.8 | – | – | 1.46 | 7.6e-05 | 52000 | – | – | – | – | – | – |
| B3 | 3.5 | 4.8 | – | – | 1.4 | 9.7e-05 | 69000 | – | – | – | – | – | – |
| B4 | 13.2 | 14 | – | – | 1.7 | 0.00011 | 67000 | ~2 x to parent | – | – | – | – | – |
| B5 | 7.6 | 8.6 | – | – | 1.4 | 9e-05 | 65000 | ~1.5 x to parent | ~0.6 x to parent | – | – | – | – |
| B6 | 5.8 | 9.3 | – | – | 0.68 | 7e-05 | 100000 | – | ~0.4 x to parent | 7.84 | 6.93 | – | – |
| B7 | 3.3 | 4.5 | 7.8 | 8.82 | 1.9 | 5.7e-05 | 33000 | – | – | 5.44 | 7.58 | 3.99 | 7.74 |
| B8 | 15.1 | 28.5 | – | – | 2.1 | 9e-05 | 43000 | ~1.5 x to parent | – | 6.59 | 7.1 | 3.25 | 7.37 |
| B9 | – | – | – | – | 186 | 0.015 | 88000 | ~245 x to parent | ~85 x to parent | – | – | 68.8 | 224 |
| B10 | 99.1 | 109 | – | – | 24 | 0.003 | 120000 | ~50 x to parent | ~10 x to parent | – | – | 46.5 | 211 |
| B11 | – | – | – | – | 12.5 | 0.00073 | 59000 | ~12 x to parent | ~5.5 x to parent | – | – | 71.9 | 242 |
| B12 | 9.8 | 10.6 | – | – | 1.2 | 7.5e-05 | 61000 | – | ~0.5 x to parent | – | – | 3.84 | 6.22 |
| B13 | 5.2 | 5.9 | – | – | 0.9 | 6.5e-05 | 70000 | – | ~0.4 x to parent | – | – | 6.65 | 5.29 |
| B14 | 5.9 | 8.1 | – | – | 1.13 | 6.2e-05 | 55000 | – | ~0.5 x to parent | – | – | 2.6 | 2.68 |
| B15 | 16.5 | 26.3 | – | – | 0.85 | 7.2e-05 | 85000 | – | ~0.5 x to parent | 5.85 | 7.28 | – | – |
| B16 | 4 | 6 | – | – | – | – | – | – | – | – | – | – | – |

From US20200262913A1 (ZymoGenetics, published 2020)
